Assay results from US20240368275A1 (ELPIS BIOPHARMACEUTICALS, published 2024).

T1: full-length human Nectin4 with C-terminal flag and Myc tags on CHO cells (human, UniProt Q96NY8 32-510)
T1 construct: whole, on cells; also called Nectin4/CHO; CHO/Nectin4; not shown: C-terminal flag and Myc tags of pCMV6-Entry vector
T1 sequence (looked up): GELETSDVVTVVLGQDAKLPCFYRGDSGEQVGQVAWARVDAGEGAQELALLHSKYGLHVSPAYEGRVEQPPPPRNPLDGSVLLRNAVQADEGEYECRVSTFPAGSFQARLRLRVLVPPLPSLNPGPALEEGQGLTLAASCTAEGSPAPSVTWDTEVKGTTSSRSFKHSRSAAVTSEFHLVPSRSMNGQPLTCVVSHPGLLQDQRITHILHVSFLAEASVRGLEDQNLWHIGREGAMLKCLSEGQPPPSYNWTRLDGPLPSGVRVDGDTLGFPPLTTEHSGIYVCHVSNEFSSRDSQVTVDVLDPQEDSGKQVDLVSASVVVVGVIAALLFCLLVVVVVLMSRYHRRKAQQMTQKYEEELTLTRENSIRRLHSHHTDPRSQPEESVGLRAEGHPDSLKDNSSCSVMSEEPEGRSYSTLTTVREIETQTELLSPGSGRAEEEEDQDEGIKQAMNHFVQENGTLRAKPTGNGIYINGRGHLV

T2: human Nectin4-Fc fusion protein (human, UniProt Q96NY8 32-349)
T2 construct: Recombinant protein coated in the scFv ELISA and captured on the anti-hFc chip in the scFv SPR; also called recombinant Nectin4-Fc fusion protein; human Nectin4-Fc protein; not shown: Fc part
T2 sequence (looked up): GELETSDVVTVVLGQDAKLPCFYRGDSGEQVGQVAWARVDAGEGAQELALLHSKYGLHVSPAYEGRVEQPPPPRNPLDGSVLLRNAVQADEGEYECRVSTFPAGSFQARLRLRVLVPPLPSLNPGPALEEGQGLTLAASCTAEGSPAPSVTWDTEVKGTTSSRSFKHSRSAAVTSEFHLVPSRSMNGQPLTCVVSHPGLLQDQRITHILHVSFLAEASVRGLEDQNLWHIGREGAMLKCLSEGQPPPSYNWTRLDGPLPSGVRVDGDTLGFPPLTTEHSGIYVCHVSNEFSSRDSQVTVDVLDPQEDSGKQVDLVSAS


How the values were obtained:
[1] = biological target: T1, full-length human Nectin4 with …; assay: flow cytometry, scFv on Nectin4/CHO cells
Description: To determine whether anti-Nectin4 scFvs bind to Nectin4 expressing cells, 200 nM of purified anti-Nectin4 scFv antibodies were diluted in full medium and incubated with Nectin4/CHO and CHO cells in 96 wells plate on ice for 1 hour. Cells were spun down at 1200 rpm for 5 minutes at 4° C. to remove primary antibodies. Cells were then washed once with 200 uL of full medium per well. Samples were detected with premixed anti-His Biotin Streptavidin Alexa fluor 647 by adding 100 uL of diluted secondary antibody and incubated at 4° C. for 30 minutes in the dark. Samples were spun down at 1200 rpm for 5 minutes at 4° C. and washed twice with 200 uL of 1×PBS per well. Reconstituted samples in 200 uL of 1×PBS and read on Attune NxT cytometer. Analysis was done by Attune NxT software plotting the overlay histogram of anti-Nectin4 scFvs binding onto both negative and target cell lines.

[2] = biological target: T2, human Nectin4-Fc fusion protein; assay: ELISA, coated human Nectin4-Fc, scFv titrated, anti-Flag HRP
Description: An ELISA assay was developed to determine the EC₅₀ of anti-Nectin4 antibodies. Briefly, 384 well plate was immobilized with human Nectin4-Fc at final concentration of 2 ug/mL in 1×PBS in total volume of 25 uL per well. The plate was incubated overnight at 4° C. followed by blocking with 80 uL of superblock per well for 1 hour. Purified anti-Nectin4 scFvs were 2-fold serial titrated from 200 nM. 25 uL was added to human Nectin4 immobilized wells and incubated for 1 hour with shaking. The Nectin4 binding was detected by adding 25 uL of anti-Flag HRP diluted at 1:5000 in 1×PBST. In between each step, the plate was washed 3 times with 1×PBST in a plate washer. The plate was then developed with 20 uL of TMB substrate for 5 mins and stopped by adding 20 uL of 2 N sulfuric acid. The plate was read at OD450 nm Biotek plate reader and then plotted in Prism 8.1 software.

[3] = biological target: T2, human Nectin4-Fc fusion protein; assay: SPR Biacore T200, Nectin4-Fc captured on anti-hFc chip, scFv injected
Description: Kinetic analysis of anti-Nectin4 scFvs has been assessed by SPR technology with Biacore T200. The assay was run with Biacore T200 control software version 2.0. Anti-human Fc antibody was immobilized on flow cell 1 and 2 of CM5 sensor chip. For each cycle, 1 ug/mL of human Nectin4-Fc protein was captured for 60 seconds at flow rate of 10 ul/min on flow cell 2 in 1×HBSP buffer on anti-hFc sensor chip. 2-fold serial diluted HIS tag purified anti-Nectin4 scFv was injected onto both reference flow cell 1 and Nectin4-Fc captured flow cell 2 for 150 seconds at flow rate of 30 ul/min followed by wash for 300 seconds. The flow cells were then regenerated with Antibody regeneration buffer (GE) for 30 seconds at flow rate of 30 ul/mins. 8 concentration points from 300-0 nM was assayed per anti-Nectin4 scFv in a 96 well plate. The kinetics of scFvs binding to Nectin4 protein was analyzed with Biacore T200 evaluation software version 3.0. The specific binding response unit was derived from subtraction of binding to reference flow cell 1 from Nectin4 captured flow cell 2.

Row | Binder | EC50 [1] [nM] | EC50 [2] [nM] | Kd [3] [nM] | koff [3] [s⁻¹] | kon [3] [M⁻¹ s⁻¹]
1 | 2021EP029-C04 scFv (scFv, V domains shown) VH: QLQLQQSGPGLVKPSQTLSLTCAISGDSVSSNRAAWSWIRQSPSRGLEWLGRTYYRSKWYNDYAVSVESRIIINPDTSKNQFSLQLNPVTPEDTAVYYCARGSFESTWLWGQGTLVTVSS VL: QAVVTQPHSVSESPGKTVTISCTRSGGSIANNYVHWYQQRPGSFPTALIYQDNQRRSGVPDRFSGSIDSSSNSASLTISGLKTEDEAEYYCQSFDNNNVVFGGGTQLTVL | 0.001 | 0.857 |  |  | 
2 | 2020EP034-B09 scFv (scFv, V domains shown) VH: EVQLVQSGAEVKKPGASVKVSCKASGYTFTGYYMHWVRQAPGQGLEWMGRINPNSGGTNYAQKFQGRVTMTRDTSISTAYMELSGLRSDDTAVYFCARVTYNIGWYIDYWGQGTLVTVSS VL: QAVVTQPPSVSVAPGKTATITCGGNNIGSKGVHWYQQKPGQAPVLVIYYDTDRPSGIPERLSGSNSGNTATLTISRVEAGDEADYYCQVWDSSSDHPVFGGGTKLTVL | 0.36 | 5.07 | 1.47 | 0.00018 | 122000
3 | 2020EP47-F02 scFv (scFv, V domains shown, also called EP047-F02) VH: QVQLQQWGAGLLKPSETLSLTCAVYGGSFSGYYWSWIRQPPGKGLEWIGEINHSGSTNYNPSLKSRVTISVDTSKNQFSLKLSSVTAADTAVYYCARGWYLGFDYWGQGTLVTVSS VL: QSVLTQPRSVSGSPGQSVTISCTGTSRDVGGYDYVSWYQQYPGKAPKLMISGVSERPSGVPDRFTGSRSANTASLTISGLQTDDEANYYCCSYAGSFTWVFGDGTKLTVL | 4.51 |  |  |  | 
4 | 2020EP034-E01 scFv (scFv, V domains shown) VH: not shown VL: DVVMTQSPLSLPVTPGEPASMSCRSSESLLHRNGFNYLDWYVQRPGQSPKLLIYMGSYRASGVPDRFSGRGSGTDFALKISRVEAEDVGVYYCMQALQSPPLYTFGPGTKLEIK | > 50 |  | 10.9 | 0.000406 | 37000
5 | 2021EP023-D06 scFv (scFv, V domains shown, Purified scFv with C-terminal flag and 6xHis tag) VH: QVQLVESGAEVKKPGSSVKVSCKASGGTFSSYAISWVRQAPGQGLEWMGGIIPIFGTANYAQKFQGRVTITADESTSTAYMELSSLRSEDTAVYYCARSRPVRGAYYWGQGTLVTVSS VL: DIQMTQSPSSLSASVGDRVTITCRASQIVNSNYLNWYQQKPGKAPNLLIYGVSNLQVGVPSRFSGSGSGTDFTLSISSLQVEDSATYYCQQSYTTPRYSFGQGTKLEIRR |  |  | 0.407 | 0.000195 | 480000

Continued, values first:

Row | EC50 [1] [nM] | EC50 [2] [nM] | Kd [3] [nM] | koff [3] [s⁻¹] | kon [3] [M⁻¹ s⁻¹] | Binder
6 | 24.2 |  |  |  |  | 2021EP030-B10 scFv (scFv, V domains shown) VH: QVQLVESGGDLVNPGRSLRLACTGAGFTFGDYAVSWFRQAPGKGLEWVGFIESKPYGETREYAASVRGRFTISRDDSKGIAYLQMNGLKTEDTGVYYCSSVVAWVAYWGQGTLVTVSS VL: AIQLTQSPSSLSASIGDRVTITCRASQSVTTYLNWYHQKPGKAPTFLIYGTSALQSGVPSRFSGSGSGTDFTLTISSLQPEDFGIYYCQQSYSLPPTFGGGTNVQIR
7 | < 0.001 | 0.412 |  |  |  | 2021EP032-E06 scFv (scFv, V domains shown) VH: QVQLVESGAEVKKPGASVKVSCKASGYTFTGYYMHWVRQAPGQGLEWMGRINPNSGGTNYAQKFQGRFTISRDNSKTTLFLQMNSLRAEDTAVYYCAKADYQWVGAIFRLNAFDIWGQGTMVTVSS VL: VIWMTQSPSSLSASVGDRVTITCRASQGISNYLAWYQQKPGKVPKLLIYAASTLQSGVPSRFSGSGSGTDFTLTISSLQPEDVATYYCQKYNSAPYTFGQGTKLEIK
8 | 0.29 | 8.76 |  |  |  | 2021EP032-D10 scFv (scFv, V domains shown) VH: EVQLVESGAEVKKPGSSVKVSCKASGGTFSSYAISWVRQAPGQGLEWMGGIIPIFGTANYAQKFQGRVAITADESTSTAYMELSSLRSEDTAVYYCARDLAIVYGSGSYYNHHPRIDYYYYGMDVWGQGTTVTVSS VL: QSVLTQPRSVSGSPGQSVTISCAGTSSDIGAYNYVSWYQQHPGKAPTLMINDVSKRPSGVPDRFSGSKSGNTASLTISGLQAEDEGDYYCFSYAGSYTLVFGGGTQLTVL
